Test [1] concerns the target T1, MT1-MMP hemopexin-like repeats (MT1-MMP hemopexin domain), residues Cys319-Gly511 from the human gene, … (human, UniProt P50281 319-511).
T1 construct: range 319-511; Secreted soluble protein expressed in HEK293 cells, purified by Ni-NTA and gel filtration; also called hemopexin of MT1-MMP; MMP14
The experiment in a line: fluorescence polarisation competition with a fluoresceinated bicyclic tracer on MT1-MMP hemopexin domain. The source says:
(§1) Here, a pre-formed complex of PEX with the fluorescent PEX-binding tracer is titrated with free, non-fluoresceinated bicyclic peptide. Since all 17-69-based peptides are expected to bind at the same site, the titrant will displace the fluorescent tracer from PEX. Dissociation of the complex can be measured quantitatively, and the Kd of the competitor (titrant) to the target protein determined. The advantage of the competition method is that the affinities of non-fluoresceinated bicyclic peptides can be determined accurately and rapidly.
(§2) Subsequently, the non-fluorescent competitor bicyclic peptide (usually just the bicycle core sequence) is titrated, such that it displaces the fluorescent tracer from the target protein. The displacement of the tracer is measured and associated with a drop in fluorescence polarisation. The drop in fluorescence polarisation is proportional to the fraction of target protein bound with the non-fluorescent titrant, and thus is a measure of the affinity of titrant to target protein.
(§3) The raw data is fit to the analytical solution of the cubic equation that describes the equilibria between fluorescent tracer, titrant, and binding protein. The fit requires the value of the affinity of fluorescent tracer to the target protein, which can be determined separately by direct binding FP experiments (see previous section). […]
(Polarisation of emitted light reports the rotation of a fluorescent probe.)

Test [2] deals with T1, MT1-MMP hemopexin-like repeats (MT1-MMP …). The experiment in a line: fluorescence polarisation competition, tracer 17-69-07-N040, human MT1-MMP hemopexin domain (n = 2).
From the text: as §1, §2, §3

Starred links: 1 amine or outer side, 2 acyl side, 3 side chain; linkers in the order of their positions; H or OH if unused. Positions of bridges follow the written chain, without caps; N, C: chain ends. Non-standard residues stand in square brackets, D forms with d. Sar10 = ten sarcosines (spacer), CN(CC(=O)N(C)CC(=O)N(C)CC(=O)N(C)CC(=O)N(C)CC(=O)[*:2])C(=O)CN(C)C(=O)CN(C)C(=O)CN(C)C(=O)CN(C)C(=O)CN(C)[*:1]; SMPP‑derived hindered disulphide linker = hindered disulphide linker derived from SMPP, with two methyl groups, carrying the toxin DM1; 1Nal = N[C@@H](Cc1cccc2ccccc12)C(=O)O; TBMB = c1c(C[*:1])cc(C[*:3])cc1C[*:2]; Tle = CC(C)(C)[C@H](N)C(=O)O; βAla = NCCC(=O)O; DM1 = toxin

B1: 17-69-07-N241 (peptide)
peptide: H-[βAla][Sar10]AC[dA]NE[1Nal][dA]CEDFYD[Tle]C-NH2
modifications: linker 4-10-17 via TBMB
SMILES: C[C@H](NC(=O)CN(C)C(=O)CN(C)C(=O)CN(C)C(=O)CN(C)C(=O)CN(C)C(=O)CN(C)C(=O)CN(C)C(=O)CN(C)C(=O)CN(C)C(=O)CN(C)C(=O)CCN)C(=O)N[C@H]1CSCc2cc3cc(c2)CSC[C@H](NC(=O)[C@@H](C)NC(=O)[C@H](Cc2cccc4ccccc24)NC(=O)[C@H](CCC(=O)O)NC(=O)[C@H](CC(N)=O)NC(=O)[C@@H](C)NC1=O)C(=O)N[C@@H](CCC(=O)O)C(=O)N[C@@H](CC(=O)O)C(=O)N[C@@H](Cc1ccccc1)C(=O)N[C@@H](Cc1ccc(O)cc1)C(=O)N[C@@H](CC(=O)O)C(=O)N[C@@H](C(C)(C)C)C(=O)N[C@H](C(N)=O)CSC3
notes: Synthetic bicyclic peptide cyclised on TBMB; precursor of BT17BDC-28; also called bAla-Sar10-A-(17-69-07) D-Ala1 1Nal4 D-Ala5 tBuGly11; (bAla)-Sar10-AC(D-Ala)NE(1Nal)(D-Ala)CEDFYD(tBuGly)C
As to B1, the affinity in test [1], expressed as Kd, was 1.21 nM.

B2: BT17BDC-28 (peptide)
peptide: {DM1-SMPP‑derived hindered disulphide linker}-[βAla][Sar10]AC[dA]NE[1Nal][dA]CEDFYD[Tle]C-NH2
modifications: linker 4-10-17 via TBMB
notes: also called Bicycle Drug Conjugate of 17-69-07-N241 with DM1
Regarding B2, binding in test [2] was put at a Kd of 1.65 nM.

B3: 17-69-07-N268 (peptide)
peptide: H-AC[dA]NE[1Nal][dA]CEDFYD[Tle]C-NH2
modifications: linker 2-8-15 via TBMB
SMILES: C[C@H](N)C(=O)N[C@H]1CSCc2cc3cc(c2)CSC[C@H](NC(=O)[C@@H](C)NC(=O)[C@H](Cc2cccc4ccccc24)NC(=O)[C@H](CCC(=O)O)NC(=O)[C@H](CC(N)=O)NC(=O)[C@@H](C)NC1=O)C(=O)N[C@@H](CCC(=O)O)C(=O)N[C@@H](CC(=O)O)C(=O)N[C@@H](Cc1ccccc1)C(=O)N[C@@H](Cc1ccc(O)cc1)C(=O)N[C@@H](CC(=O)O)C(=O)N[C@@H](C(C)(C)C)C(=O)N[C@H](C(N)=O)CSC3
notes: Synthetic bicyclic peptide cyclised on TBMB; lacks the bAla-Sar10 spacer of 17-69-07-N241; Precursor of BT17BDC-27; also called A-(17-69-07) D-Ala1 1Nal4 D-Ala5 tBuGly11; AC(D-Ala)NE(1Nal)(D-Ala)CEDFYD(tBuGly)C
Consider B3, for which the Kd in test [1] stood at 1.7 nM.

B4: BT17BDC-27 (peptide)
peptide: {DM1-SMPP‑derived hindered disulphide linker}-AC[dA]NE[1Nal][dA]CEDFYD[Tle]C-NH2
modifications: linker 2-8-15 via TBMB
notes: also called Bicycle Drug Conjugate of 17-69-07-N268 with DM1
In test [2], B4 showed a Kd of 0.69 nM.

For orientation: Kd means the constant that tells how readily two partners part at equilibrium. Read a low Kd as a tighter complex.

(Values after patent US20190134213A1 (Bicycle, published 2019).)
